{"source": "paper PMC9342958", "molecular_target": "CARD9 CARD fused to mEos3.1 (human)", "experiment": "FRET or BRET; DAmFRET (Distributed Amphifluoric FRET) in living S. cerevisiae: protein fused to mEos3.1, GAL promoter, about 16 hr in galactose, part of mEos3.1 photoconverted to the acceptor form, AmFRET against expression level by flow cytometry"}
{"substance": "CARD9 CARD fused to mEos3.1 (domain or fragment)", "values": [{"measurement": "threshold concentration of polymerisation", "value": 100, "unit": "µM"}]}
